Experimental data reported in the Immune Epitope Database (IEDB).
Each block holds one sequence with its values, some of them ahead of it.

Legend:
HLA-A*02:01 [1] = assay: IEDB peptide-MHC binding, purified MHC/competitive/fluorescence; filed as Kd, often an IC50 or EC50 that approximates it; ≥ and ≤ were set here for values at or beyond the usual limits of such assays
HLA-A*01:01 [2] = assay: IEDB peptide-MHC binding, purified MHC/competitive/radioactivity; filed as Kd, often an IC50 or EC50 that approximates it; ≥ and ≤ were set here for values at or beyond the usual limits of such assays
HLA-A*26:01 = assay: as above; settings: source organism: Dengue virus 1 Brazil/97-11/1997
HLA-A*30:01 = assay: as above
HLA-A*02:01 [3] = assay: IEDB peptide-MHC binding, purified MHC/competitive/fluorescence; ≥ and ≤ were set here for values at or beyond the usual limits of such assays
HLA-A*32:01 = assay: IEDB peptide-MHC binding, purified MHC/competitive/radioactivity; filed as Kd, often an IC50 or EC50 that approximates it; ≥ and ≤ were set here for values at or beyond the usual limits of such assays
HLA-A*03:01 = assay: IEDB peptide-MHC binding, purified MHC/direct/fluorescence; filed as Kd, often an IC50 or EC50 that approximates it; ≥ and ≤ were set here for values at or beyond the usual limits of such assays
HLA-A*02:01 [4] = assay: as above; settings: source organism: Haemophilus influenzae
HLA-B*15:01 = assay: as above; settings: source organism: Rickettsia prowazekii
HLA-A*69:01 = assay: as above
HLA-A*02:03 = assay: IEDB peptide-MHC binding, purified MHC/competitive/radioactivity; filed as Kd, often an IC50 or EC50 that approximates it; ≥ and ≤ were set here for values at or beyond the usual limits of such assays; settings: source organism: Dengue virus 1 Singapore/S275/1990
HLA-A*01:01 [5] = assay: IEDB peptide-MHC binding, purified MHC/direct/fluorescence; filed as Kd, often an IC50 or EC50 that approximates it; ≥ and ≤ were set here for values at or beyond the usual limits of such assays
HLA-B*58:01 = assay: as above; settings: source organism: Homo sapiens
HLA-A*11:01 = assay: as above; settings: source organism: Lassa virus Josiah
[6] = source organism: Vaccinia virus WR
[7] = source organism: Vaccinia virus
[8] = source organism: Dengue virus 4 Philippines/H241/1956
[9] = source organism: Vaccinia virus Copenhagen

Sequence: GLCTLVAM
- Kd (HLA-A*02:01 [1]; source organism: Human herpesvirus 4 strain B95-8): 2370 nM

Sequence: SIPATLFVWY
- Kd (HLA-A*01:01 [2]; source organism: Dengue virus 1 Brazil/97-11/1997): ≥ 20500 nM
- Kd (HLA-A*26:01): 128 nM

Sequence: KTISMLIEV
- Kd (HLA-A*30:01; [6]): 580 nM

Sequence: IMAKNEVFCV
- IC50 (HLA-A*02:01 [3]; source organism: Hepatitis C virus genotype 1): 5000 nM

Sequence: KIKDVSYND
- IC50 (HLA-A*02:01 [3]; [7]): ≥ 571000 nM

Sequence: ELNYVLWEGG
- Kd (HLA-A*32:01; [8]): 9340 nM

Sequence: TMKPHTFNK
- Kd (HLA-A*03:01; source organism: Bacillus thuringiensis): 120 nM

- Kd (HLA-A*02:01 [4]): 7760 nM
Sequence: ALLGERPII

Sequence: IQGTLAKAY
- Kd (HLA-B*15:01): 215 nM

- Kd (HLA-A*02:01 [1]; source organism: Escherichia coli O139:H28 str. E24377A): 0.2 nM
Sequence: ILTLANWCL

Sequence: KMSILGVSI
- Kd (HLA-A*32:01; [6]): 2.36 nM

Sequence: RYRFAFLYL
- Kd (HLA-A*30:01; [6]): 0.169 nM

Sequence: VIMEYHLLF
- Kd (HLA-A*32:01; [9]): ≥ 77800 nM

Sequence: NAICSAVPSH
- Kd (HLA-A*30:01; source organism: Dengue virus 2 Jamaica/1409/1983): 6440 nM

Sequence: PLNEGIMAV
- Kd (HLA-A*69:01; source organism: dengue virus type 1): ≥ 5000 nM
- Kd (HLA-A*02:03): 118 nM

- Kd (HLA-A*01:01 [5]; source organism: Homo sapiens): 55 nM
- Kd (HLA-A*03:01; source organism: Homo sapiens): 18700 nM
- Kd (HLA-A*69:01; source organism: Homo sapiens): 1330 nM
- Kd (HLA-B*58:01): 220 nM
Sequence: KSDLQPPNY

Sequence: GTLEFTPID
- IC50 (HLA-A*02:01 [3]; [6]): ≥ 132000 nM

Sequence: TLCDMIKGT
- IC50 (HLA-A*02:01 [3]; [7]): 23000 nM

Sequence: QLLLQKYPP
- IC50 (HLA-A*02:01 [3]; [7]): ≥ 93600 nM

Sequence: VSNRCPICK
- Kd (HLA-A*03:01; source organism: Lassa virus Josiah): 882 nM
- Kd (HLA-A*11:01): 47.2 nM

Sequence: KTETTILDV
- Kd (HLA-A*01:01 [2]; [8]): 6200 nM

Sequence: KVKSYNYML
- Kd (HLA-A*30:01; [6]): 0.175 nM

Sequence: TLFIGSHVV
- Kd (HLA-A*02:01 [1]; source organism: human gammaherpesvirus 4): 1.4 nM

Sequence: RTIFNFHLI
- Kd (HLA-A*32:01; [6]): 2.09 nM

Sequence: KLKFRFIIR
- Kd (HLA-A*30:01; [6]): 119 nM

Sequence: WAFWETKKN
- IC50 (HLA-A*02:01 [3]; source organism: Zaire ebolavirus): ≥ 212000 nM

Sequence: VLTLATGPIL
- Kd (HLA-A*30:01; source organism: Dengue virus 4 Dominica/814669/1981): 1330 nM

Sequence: MYKLNKPTK
- Kd (HLA-A*01:01 [5]; source organism: Camelpox virus M-96): ≥ 20000 nM

Sequence: QVCIDILRS
- IC50 (HLA-A*02:01 [3]; [7]): ≥ 97100 nM

Sequence: DARVYADPMA
- Kd (HLA-A*30:01; [8]): 9270 nM

Sequence: LTFNFTPKI
- Kd (HLA-A*32:01; [6]): 110 nM

Sequence: CFKPALPTL
- Kd (HLA-A*30:01; [9]): 72 nM
